Here are results for 14 sequences from the DeepSol protein solubility set.

The nature of this series: soluble on expression in E. coli; label from the status in PepcDB or PDB records.
On to “STVELCGQWDTRTVAGGRYTVSNNVWGAETAQCIEVGLETGNFTITRAEHDNGNNVAAYPNIQFAIPQPRRVQELSDVRTSWTLTPITTGRWNAAYDIFFAANPNHVTYSGDAELMIWLNKNGDVMPIGSRVATVELAGATWEVWYADNGAMNVISYVRTTPTTSVTELDLKAFIDDAVARGYIRPEWYLLSVQTGFELFTGGAGLRSADFSVTVQ”, for which the “soluble on expression in E. coli” value is given as “soluble”.

As to “MSGNYDKNNINNFIDKNDEHDMSDILHKINNEEKKYEEIKSYSECLELLYKTHALKLGLDNPKKLNESFGHPCDKYKTIHIAGTNGKGSVCYKIYTCLKIKKFKVGLFSSPHIFSLRERIIVNDEPISEKELIHLVNEVLNKAKKLYINPSFFEIITLVAFLHFLNKKVDYAIIETGIGGRLDATNILTKPEVIVITSIGYDHLNILGDNLPIICNEKIGIFKKDANVVIGPSVAIYKNVFDKAKELNCTIHTVVPEPRGERYNEENSRIALRTLEILNISIDYFLKSIIPIKPPLRIQYLATEQIQHIKKKFSPDNLEHNVQYPLAVILDVGHNETAIDRLCTDINYFHKGQNIRICISITKPRNLSVFHPFIAQFGDTLKDIFYLPSLNERTYDFEEIVEMLNNEEEIKNEIKELILSSSKKVGKWLAHEKQGNINEEDALKLYKRGCIPLIIKNAFLECCKDNSILLVCGTFFVFDEVLNVFDIHSDMQDTIFMNEPS”, the “soluble on expression in E. coli” value is “not soluble”.

Consider “MGSDKIHHHHHHMNSGPVSVACAQGSHGGDVVRLAARLGISPTDILDFSSNANSLCDDLTRQVLAQTGYAHSHYPDSECTGLRHRIAGFEETQPERILAGNGSSELIYLAMHSLKPRRVLLIAPVFSEYVRACQACGADYRLFETDPYDGFDIPERHICRLHDAVTAYRPDMAVICAPSNPACTDYSRMDDILYALDCPHVLVDNSYLDFLWGTPAYSRHGMAAYAGCTRTETKVISLRSMTKFFYCTGVRLGYCHADEQTIERMNRCKTPWSVWHAAQQAGMAFLDRMDEYRLRLPAMRAEKTAFAGALRNTGIFDNNLVLEGANFVTARLQRPAKAATVYTELLQHGILVRLCDNIPGMPQGFIRMQVREKKAWSRLTAILGTLDAE”, for which the “soluble on expression in E. coli” value is reported as “not soluble”. Next, “SRRMKANARERNRMHGLNAALDNLRKVVPCYSKTQKLSKIETLRLAKNYIWALSEILRSG”: “soluble”. Turning to “MLAFIRFLFAGLLLVISHAFAATVQDEHGTFTLEKTPQRIVVLELSFADALAAVDVIPIGIADDNDAKRILPEVRAHLKPWQSVGTRAQPSLEAIAALKPDLIIADSSRHAGVYIALQQIAPVLLLKSRNETYAENLQSAAIIGEMVGKKREMQARLEQHKERMAQWASQLPKGTRVAFGTSREQQFNLHTQETWTGSVLASLGLNVPAAMAGASMPSIGLEQLLAVNPAWLLVAHYREESIVKRWQQDPLWQMLTAAQKQQVASVDSNTWARMRGIFAAERIAADTVKIFHHQPLTVVK”, the “soluble on expression in E. coli” value is “soluble”.

As for “MSSETITVERSGKVHHAEGDAARLDAYIPSECPQNHAANLLHLPNGDVLCVWFGGTQEGIADISIYMSRLVKDSGSWSKAAKLSEDATRSEQNPVLFLAPDNVLWLLYTAQKSGNQDTAIVRYRQSTDLGATWGEIGTLLDQPGTFIRQPITVLENGDWLLPVFYCRVQPGEKWVGNDDDSAVKISSDQGKTWREYPVPNSTGCVHMNITPLQDGTLLALYRSRWADFIYQSRSTDGGKTWSEPVATDLPNNNSSIQVTTLKNGHLALVFNHMSAADATDRRLSLYDEIEDEEDKASGAKMPEVQAGDRSAFWGAPRAPMTLAISEDGGKSWPYQRNIEVGDGYCMTNNSTEKLNREFSYPSVKQAPDGKLHVAFTYFRQAIKHVVVSEEWVKAGLEHHHHHH”, the “soluble on expression in E. coli” value was “not soluble”. Next, “MKFTVGNGQNQHKGVNDGFSYEIWLDNTGGNGSMTLGSGATFKAEWNAAVNRGNFLARRGLDFGSQKKATDYDYIGLDYAATYKQTASASGNSRLCVYGWFQNRGLNGVPLVEYYIIEDWVDWVPDAQGKMVTIDGAQYKIFQMDHTGPTINGGSETFKQYFSVRQQKRTSGHITVSDHFKEWAKQGWGIGNLYEVALNAEGWQSSGVADVTLLDVYTTPKGSSPALEHHHHHH”: “soluble”; “MKLIVSGKNLEVTEGLREAVEKQISKLEKYFKPEVEAHVTLSVEKNRQIVEVTIPFNGVILRGEETNNDMYASIDIVGDKLERQVRKQKTKLERRKYSDSLKFQNIPDYHKEEQEPEIVKTKRFAIKPMSEEEAVLEMELLGHNFFVFQNGDSNEVNVVYKRKDGNYGLIEPEFLEHHHHHH”: “soluble”. Next, “MYLPDDSPAKRLLFQMVGNAINRNTQQLTQDLRAMPNWSLRFVYIVDRNNQDLLKRPLPPGIMVLAPRLTAKHPYDKVQDRNRKLYGRHITLNDGNSVKVVTISAGRDEGPDRDIIWEMFLENLEHHHHHH”: “soluble”. In the case of “MLDLNRKLAKLEEEGKKIKVALIGAGHMGNGMVSQMANMKGIEASIVVDINLELAHKAFTDAGIDEEIIDNVTNEKDAEIKLQEGKVLTCNDFLVACKTKSIDVVIDATGGIAIGAEIALNSILNKKHIVMLNAETDCVVGPILKKLADDAGVIFTGSAGDEPGAVMELFDFADAMGFEVRVIGKGKNNKLDLDCNPDTVREEAERKGASPHMIASFKEGTKTMVEMALMCNATGFVPDVRGGHGIEATVNEVPKKYALKSEGGVLDNYGVVDFVNGIAPGVFVVVAHKLKAVNDELKYLSMGDGPNYILYRPYHLCSLETPLSAAMAVLDHKATIVPKAGLVAEVMTIAKKDLKKGEFMDGYGAYTCYGTIEKYDVAKAMNAVPIGLISKKTKVVKDIKKGEVITYDMVEIEKDTTLYHLRQLQEKIFG”, the “soluble on expression in E. coli” value is listed as “not soluble”. Next, “MIKHLFIDLDDTLWDTYHNNKSSLEELYHTHAWDRYFDSFETFFSIYLPHNEALWSEYRYGQIDKPTLTLERFRRPFTGYLTLSDEQILAWNAEFLSITGRKTRLCPHALEVMEYLHRYYKVYILSNGFREIQHAKLTNSGLAPYIDRVILSEDAGINKPNKKIFDFALVKAKARKTESIMIGDSWEADIVGAANAGLASVWYNPNRHILPDDGVRAPMHIISSLSELMQIF”: “not soluble”; “VPRGSAKGDGVTDDTAALTSALNDTPVGQKINGNGKTYKVTSLPDISRFINTRFVYERIPGQPLYYASEEFVQGELFKITDTPYYNAWPQDKAFVYENVIYAPYMGSDRAGVSRLHVSWVKSGDDGQTWSTPEWLTDLHPDYPTVNYHCMSMGVCRNRLFAMIETRTLAKNALTNCALWDRPMSRSLHLTGGITKAANQRYATIHVPDHGLFVGDFVNFSNSAVTGVSGDMTVATVIDKDNFTVLTPNQQTSDLNNAGKNWHMGTSFHKSPWRKTDLGLIPSVTEVHSFATIDNNGFAMGYHQGDVAPREVGLFYFPDAFNSPSNYVRRQIPSEYEPDASEPCIKYYDGVLYLITRGTRGDRLGSSLHRSRDIGQTWESLRFPHNVHHTTLPFAKVGDDLIMFGSERAENEWEAGAPDDRYKASYPRTFYARLNVNNWNADDIEWVNITDQIYQGGIVNSGVGVGSVVVKDNYIYYMFGGEDHFNPWTYGDNSAKDPFKSDGHPSDLYCYKMKIGPDNRVSRDFRYGAVPNRAVPVFFDTNGVRTVPAPMEFTGDLGLGHVTIRASTSSNIRSEVLMEGEYGFIGKSIPTDNPAGQRIIFCGGEGTSSTTGAQITLYGANNTDSRRIVYNGDEHLFQSADVKPYNDNVTALGGPSNRFTTAYLGSNPIVT”: “soluble”. For “MSNFEKRNRKMAEKNIRKPKQERSIEKRNKILQVAKDLFSDKTYFNVTTNEIAKKADVSVGTLYAYFASKEDILTALLKRYNDFFLTTIFADINSQDSLDRFKKNPKEWLNVLINQLLAAEDKIFHAQIEMLAYAIPQAKALLEEHNNNLKNLTYKCLLYYSDQAANPSFKTLSLVVFDFISALVDELLYHEHTQEEAHQIKKTGIDSLDLIIKSYL”, the “soluble on expression in E. coli” value is “soluble”. Turning to “MHTRAEKLEAFGRLLDVLDTLREQCPWDRKQTNESLRTNTIEEVYELSEALLGECPDDIRKELGDVLLHVAFYAKIGEEKGQFDIASVCHALCDKLIYRHPHIYGNVQVENAAEVVRNWEQLKLREKDGNKSVLSGVPKSLPALVKSYRMQEKAAGVGFDWEQREQVWPKVEEELNEVRGAIVSEDPDAMEAEFGDLLFAVVNAARLYGINPDNALERTNRKFDSRFSYVEQRAKQQGKALRDMTLSEMDALWNEAKQKGL”, the “soluble on expression in E. coli” value is “not soluble”.
